Reference: patent publication US20180057596A1 (AstraZeneca / MedImmune, published 2018)

T1: human IL-4Rα on TF-1 cells (human, UniProt P24394 26-825)
T1 sequence (looked up): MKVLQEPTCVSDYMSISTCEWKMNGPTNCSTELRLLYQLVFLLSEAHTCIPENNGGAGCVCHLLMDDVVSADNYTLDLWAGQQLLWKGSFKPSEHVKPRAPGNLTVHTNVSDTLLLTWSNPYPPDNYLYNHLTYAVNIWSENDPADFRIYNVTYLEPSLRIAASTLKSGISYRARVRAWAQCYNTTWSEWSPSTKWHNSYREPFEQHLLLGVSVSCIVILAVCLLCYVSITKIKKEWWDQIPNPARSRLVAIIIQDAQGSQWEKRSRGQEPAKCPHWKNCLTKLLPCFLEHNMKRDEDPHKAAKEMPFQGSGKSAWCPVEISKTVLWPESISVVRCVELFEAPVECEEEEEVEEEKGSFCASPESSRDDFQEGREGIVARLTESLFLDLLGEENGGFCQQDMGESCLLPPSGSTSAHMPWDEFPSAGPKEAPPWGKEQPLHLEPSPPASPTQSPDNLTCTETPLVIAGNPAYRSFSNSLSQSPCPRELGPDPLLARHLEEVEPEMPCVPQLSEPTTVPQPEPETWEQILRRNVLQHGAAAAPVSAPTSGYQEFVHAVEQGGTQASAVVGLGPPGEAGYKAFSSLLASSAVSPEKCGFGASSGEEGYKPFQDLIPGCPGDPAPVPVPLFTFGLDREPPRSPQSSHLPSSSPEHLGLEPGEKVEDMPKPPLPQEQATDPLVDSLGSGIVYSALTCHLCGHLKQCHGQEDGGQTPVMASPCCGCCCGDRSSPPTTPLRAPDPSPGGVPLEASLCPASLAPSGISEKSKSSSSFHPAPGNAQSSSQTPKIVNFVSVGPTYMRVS

T2: human IL4Rα/Fc (R and D Systems 604-4R) (human, UniProt P24394 26-231, limits assumed, biotin labelled in the assay of Example 5)
T2 construct: bought protein; also called IL-4Rα/Fc (R&D systems Cat. No. 604-4R-050); not shown: Fc part of the bought fusion
T2 sequence (looked up): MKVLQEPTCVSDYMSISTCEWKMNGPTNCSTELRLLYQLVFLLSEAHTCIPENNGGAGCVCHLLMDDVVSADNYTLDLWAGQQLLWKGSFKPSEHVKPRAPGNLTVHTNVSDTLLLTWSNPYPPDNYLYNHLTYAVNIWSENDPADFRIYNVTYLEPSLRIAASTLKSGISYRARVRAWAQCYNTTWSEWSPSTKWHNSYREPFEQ


Target: T3, cynomolgus IL4Rα/Fc HIS6 (HEK expressed) (cynomolgus monkey)
T3 construct: also called Cyno IL4R; cynomolgus IL-4Rα HIS Fc (in house HEK-EBNA derived); not shown: HIS6 tag
Assay: HTRF receptor-ligand assay, purified scFv against biotinylated cynomolgus IL4

T3 sequence (chain, as listed by the source): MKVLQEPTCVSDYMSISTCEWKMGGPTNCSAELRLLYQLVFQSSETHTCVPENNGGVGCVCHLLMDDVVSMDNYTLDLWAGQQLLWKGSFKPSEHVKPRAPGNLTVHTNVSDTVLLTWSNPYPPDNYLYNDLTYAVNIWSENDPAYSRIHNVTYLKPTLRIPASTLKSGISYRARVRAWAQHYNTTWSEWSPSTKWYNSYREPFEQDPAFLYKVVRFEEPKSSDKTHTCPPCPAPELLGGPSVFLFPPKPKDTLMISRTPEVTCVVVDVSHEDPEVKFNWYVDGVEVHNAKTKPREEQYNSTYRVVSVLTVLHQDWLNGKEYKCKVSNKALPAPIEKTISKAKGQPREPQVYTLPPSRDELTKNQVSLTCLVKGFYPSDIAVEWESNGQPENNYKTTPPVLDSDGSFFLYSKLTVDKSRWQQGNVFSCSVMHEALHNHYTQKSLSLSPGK

| Binder | Ki [nM] |
| --- | --- |
| Antibody 40 scFv (scFv, V domains shown, tested as purified scFv) VH: QVQLVQSGAEVKKPGASVKVSCKASGYAFTSYYMHWARQAPGQGLEWMGIINPSGGSTSYAQKFQGRVTMTRDTSTSTVYMELSSLRSEDTAVYYCARGKYWMYDWGKGTLVTVSS VL: QSVLTQPPSVSAAPGQKVTISCSGGSSNIGNSYVSWYQQLPGTAPKLLIYDNNKRPSGIPDRFSGSKSGTSATLAITGLQTGDEADYYCGTWDSSTVWEWPFGTGTKLTVL | 6.5 |
| Antibody 42 scFv (scFv, V domains shown, tested as purified scFv) VH: QVQLVQSGAEVKKPGASVKVSCKASGYAFTSYYMHWARQAPGQGLEWVGIINPSGGSTSYAQKFQGRVTMTRDTSTSTVYMELSSLRSGDTAVYYCARGKYWMYDWGKGTLVTVSS VL: QAVLTQPPSVSAAPGQKVTISCSGGSSNIGNSYVSWYQRLPGAAPKLLIYDNNKRPSGIPDRFSGSKSGTSATLAITGLQTGDEADYYCGTWDTSTGWEWPFGTGTKLTVL | 2.5 |
| Antibody 41 scFv (scFv, V domains shown, tested as purified scFv) VH: QVQLVQSGAEVRKPGASVKVSCKASGYAFTSYYMHWARQAPGQGLEWMGIINPSGGSTSYAQKFQGRVTMTRDTSTSTVYMELSSLRPEDTAVYYCARGKYWMYDWGKGTLVTVSG VL: QSVLTQPPSVSAAPGQKVTISCSGGSTNIGNSYVSWYQRLPGTAPKLLIYDNNKRPPGIPDRFSGSKSGTSATLAITGLQTGDEADYYCGTWDTSTVWEWPFGTGTKLTVL | 2.7 |

Target: T1, human IL-4Rα on TF-1 cells
Assay: cell-based or functional assay

| Binder | IC50 (pM), IL-4 induced TF-1 cell proliferation [pM] | IC50 (pM), IL-13 induced TF-1 cell proliferation [pM] |
| --- | --- | --- |
| Antibody 8 IgG (antibody, V domains shown) VH: QVQLVQSGAEVKKPGASVKVSCKASGYAFTSYYMHWARQAPGQGLEWMGIINPSGGSTSYAQKFQGRVTMTRDTSTSTVYMELSSLRSEDTAVYYCARGKWWWQYWGKGTLVTVSS VL: QSVLTQPPSVSAAPGQKVTISCSGGSSNIGNSYVSWYQQLPGTAPKLLIYDNNKRPSGIPDRFSGSKSGTSATLAITGLQTGDEADYYCGTWDTSTTYHPIFGTGTKLTVL | 7.9 | 22.4 |
| Antibody 13 IgG (antibody, V domains shown) VH: QVQLVQSGAEVKKPGASVKVSCKASGYAFTSYYMHWARQAPGQGLEWMGIINPSGGSTSYAQKFQGRVTMTRDTSTSTVYMELSSLRSEDTAVYYCARGKWWLYDWGKGTLVTVSS VL: QSVLTQPPSVSAAPGQKVTISCSGGSSNIGNSYVSWYQQLPGTAPKLLIYDNNKRPSGIPDRFSGSKSGTSATLAITGLQTGDEADYYCGTWDTSTTLQPLFGTGTKLTVL | 15.7 | 24.6 |
| Antibody 21 IgG (antibody, V domains shown) VH: QVQLVQSGAEVKKPGASVKVSCKASGYAFTSYYMHWARQAPGQGLEWMGIINPSGGSASYAQKFQGRVTMTRDTSTSTVYMELSSLRSEDTAVYYCARGKYWMYDWGKGTLVTVSS VL: QSVLTQPPSVSAAPGQKVTISCSGGSSNIGNSYVSWYQQLPGTAPKLLIYDNNKRPSGIPDRFSGSKSGTSATLAITGLQTGDEAVYFCGTWDTSTVWEWPFGTGTKLTVL | 19.7 | 34.7 |
| Antibody 16 IgG (antibody, V domains shown) VH: QVQLVQSGAEVKKPGASVKVSCKASGYAFTSYYMHWARQAPGQGLEWMGIINPSGGSTSYAQKFQGRVTMTRDTSTSTVYMELSSLRSEDTAVYYCARGKWWLYNWGKGTLVTVSS VL: QSVLTQPPSVSAAPGQKVTISCSGGSSNIGNSYVSWYQQLPGTAPKLLIYDNNKRPSGIPDRFSGSKSGTSATLAITGLQTGDEADYYCGTWDTSTTYHPIFGTGTKLTVL | 6.2 | 19.5 |
| Antibody 12 IgG (antibody, V domains shown) VH: QVQLVQSGAEVKKPGASVKVSCKASGYAFTSYYMHWARQAPGQGLEWMGIINPSGGSTSYAQKFQGRVTMTRDTSTSTVYMELSSLRSEDTAVYYCARGKWWFYDWGKGTLVTVSS VL: QSVLTQPPSVSAAPGQKVTISCSGGSSNIGNSYVSWYQQLPGTAPKLLIYDNNKRPSGIPDRFSGSKSGTSATLAITGLQTGDEADYYCGTWDTSTTMYPLFGTGTKLTVL | 18.2 | 40.7 |
| Antibody 19 IgG (antibody, V domains shown) VH: QVQLVQSGAEVKKPGASVKVSCKASGYAFTSYYMHWARQAPGQGLEWMGIINPSGGSTSYAQKFQGRVTMTRDTSTSTVYMELSSLRSEDTAVYYCARGKWWWQHWGKGTLVTVSS VL: QSVLTQPPSVSAAPGQKVTISCSGGSSNIGNSYVSWYQQLPGTAPKLLIYDNNKRPSGIPDRFSGSKSGTSATLAITGLQTGDEADYYCGTWDTSTTYHPIFGTGTKLTVL | 7.6 | 22.4 |
| Antibody 14 IgG (antibody, V domains shown) VH: QVQLVQSGAEVKKPGASVKVSCKASGYAFTSYYMHWARQAPGQGLEWMGIINPSGGSTSYAQKFQGRVTMTRDTSTSTVYMELSSLRSEDTAVYYCARGKWWLYNWGKGTLVTVSS VL: QSVLTQPPSVSAAPGQKVTISCSGGSSNIGNSYVSWYQQLPGTAPKLLIYDNNKRPSGIPDRFSGSKSGTSATLAITGLQTGDEADYYCGTWDTSPPTKPLFGTGTKLTVL | 3.8 | 27.2 |
| Antibody 24 IgG (antibody, V domains shown) VH: QVQLVQSGAEVKKPGASVKVSCKASGYAFTSYYMHWARQAPGQGLEWMGIINPRGGSTSYAQKFQGRVTMTRDTSTSTVYMELSSLRSEDTAVYYCARGKYWMYDWGKGTLVTVSS VL: QSVLTQPPSVSAAPGQKVTISCSGGSSNIGNSYVSWYQQLPGTAPKLLIYDNNKRPSGIPDRFSGSKSGTSATLAITGLQTGDEADYFCGTWDTSTVWEWPFGTGTKLTVL | 12.6 | 30.2 |
| Antibody 25 IgG (antibody, V domains shown) VH: QVQLVQSGAEVKKPGASVKVSCKASGYAFTSYYMHWARQAPGQGLEWMGIINPRGGSASYAQKFQGRVSMTRDTSTSTVYMELSSLRSEDTAVYYCARGKYWMYDWGKGTLVTVSS VL: QSVLTQPPSVSAAPGQKVTISCSGGSSNIGNSYVSWYQQLPGTAPKLLIYDNNKRPSGIPDRFSGSKSGTTATLAITGLQTGDEADYYCGTWVTSTVWEWPFGTGTKLTVL | 9.8 | 23.2 |
| Antibody 15 IgG (antibody, V domains shown) VH: QVQLVQSGAEVKKPGASVKVSCKASGYAFTSYYMHWARQAPGQGLEWMGIINPSGGSTSYAQKFQGRVTMTRDTSTSTVYMELSSLRSEDTAVYYCARGKWWLYNWGKGTLVTVSS VL: QSVLTQPPSVSAAPGQKVTISCSGGSSNIGNSYVSWYQQLPGTAPKLLIYDNNKRPSGIPDRFSGSKSGTSATLAITGLQTGDEADYYCGTWDTSTHRHPLFGTGTKLTVL | 2.8 | 17.8 |
| Antibody 10 IgG (antibody, V domains shown) VH: QVQLVQSGAEVKKPGASVKVSCKASGYAFTSYYMHWARQAPGQGLEWMGIINPSGGSTSYAQKFQGRVTMTRDTSTSTVYMELSSLRSEDTAVYYCARGKWWLYDWGKGTLVTVSS VL: QSVLTQPPSVSAAPGQKVTISCSGGSSNIGNSYVSWYQQLPGTAPKLLIYDNNKRPSGIPDRFSGSKSGTSATLAITGLQTGDEADYYCGTWDTSTVLTPIFGTGTKLTVL | 10.1 | 25.4 |
| Antibody 31 IgG (antibody, V domains shown) VH: QVQLVQSGAEVKKPGASVKVSCKASGYAFTSYYMHWARQAPGQGLEWMGIINPSGGSTSYAQKFQGRVTMTRDTSTSTVYMELSSLRSEDTAVYYCARGKYWMYDWGKGTLVTVSS VL: QSVLTQPPSVSAAPGQKVTISCSGGSSSIGNSYVSWYQQLPGTAPKLLIYDNNKRPSGIPDRFSGSKSGTSATLAITGLQTGDEADYYCGTWATSPVWEWPFGTGTKLTVL | 20.2 | 44.2 |
| Antibody 11 IgG (antibody, V domains shown) VH: QVQLVQSGAEVKKPGASVKVSCKASGYAFTSYYMHWARQAPGQGLEWMGIINPSGGSTSYAQKFQGRVTMTRDTSTSTVYMELSSLRSEDTAVYYCARGKWWFYDWGKGTLVTVSS VL: QSVLTQPPSVSAAPGQKVTISCSGGSSNIGNSYVSWYQQLPGTAPKLLIYDNNKRPSGIPDRFSGSKSGTSATLAITGLQTGDEADYYCGTWDTSPSMIPLFGTGTKLTVL | 18.8 | 32.7 |

Target: T2, human IL4Rα/Fc (R and D Systems 604-4R)
Assay: HTRF receptor-ligand assay, purified scFv against biotinylated human IL4

| Binder | Ki [nM] |
| --- | --- |
| Antibody 40 scFv (scFv, V domains shown, tested as purified scFv) VH: QVQLVQSGAEVKKPGASVKVSCKASGYAFTSYYMHWARQAPGQGLEWMGIINPSGGSTSYAQKFQGRVTMTRDTSTSTVYMELSSLRSEDTAVYYCARGKYWMYDWGKGTLVTVSS VL: QSVLTQPPSVSAAPGQKVTISCSGGSSNIGNSYVSWYQQLPGTAPKLLIYDNNKRPSGIPDRFSGSKSGTSATLAITGLQTGDEADYYCGTWDSSTVWEWPFGTGTKLTVL | 0.031 |
| Antibody 42 scFv (scFv, V domains shown, tested as purified scFv) VH: QVQLVQSGAEVKKPGASVKVSCKASGYAFTSYYMHWARQAPGQGLEWVGIINPSGGSTSYAQKFQGRVTMTRDTSTSTVYMELSSLRSGDTAVYYCARGKYWMYDWGKGTLVTVSS VL: QAVLTQPPSVSAAPGQKVTISCSGGSSNIGNSYVSWYQRLPGAAPKLLIYDNNKRPSGIPDRFSGSKSGTSATLAITGLQTGDEADYYCGTWDTSTGWEWPFGTGTKLTVL | 0.027 |
| Antibody 41 scFv (scFv, V domains shown, tested as purified scFv) VH: QVQLVQSGAEVRKPGASVKVSCKASGYAFTSYYMHWARQAPGQGLEWMGIINPSGGSTSYAQKFQGRVTMTRDTSTSTVYMELSSLRPEDTAVYYCARGKYWMYDWGKGTLVTVSG VL: QSVLTQPPSVSAAPGQKVTISCSGGSTNIGNSYVSWYQRLPGTAPKLLIYDNNKRPPGIPDRFSGSKSGTSATLAITGLQTGDEADYYCGTWDTSTVWEWPFGTGTKLTVL | 0.053 |
